In patent publication US20240270839A1:

How the values were obtained:
[1] = target: recombinant 6xHis tagged human CLDN18.2 (human); assay: SPR (Biacore T200), His tagged CLDN18.2 amine-coupled on CM5, antibody as analyte, 1:1 fit
[2] = target: recombinant 6xHis tagged human CLDN18.2 (human); assay: SPR (Biacore); same values as Table 30
[3] = target: human CLDN18.2 as used in the Octet assay (human); assay: Octet (BLI); format not described

Kd [1]: 115 nM | Kd [2]: 115 nM | Kd [3]: 1.6 nM
Substance: IMAB362 (Zolbetuximab) (antibody)
